Target: 14-3-3γ (UniProt P61981)
Assay: co-immunoprecipitation and immunoblot
Conditions: reference: wild-type Flag-PP1α; sites S224,T226

binding against the reference: weaker
Substance: PP1α (from UniProt P62136) S224A/T226A

— publication PMC5768788
